Results taken from patent US20070134236A1 (Biogen, published 2007).
Where a chain is given by its changes, count along the chain named. Blank lines part the entries; values can stand above or below the binder they belong to.

Assays:
[1] = target: T1, human MCP-1 (human, UniProt P13500 24-99); test: ELISA on plate-coated human MCP-1, anti-human IgG-HRP; y axis unlabelled, OD 405 nm per paragraph 382
T1 construct: also called hMCP-1; huMCP-1
Procedure: (§1) Binding specificities of chimeric 11K2 and the four versions of humanized 11K2 (H1-L1, H1-L2, H2-L1, and H2-L2) were determined by ELISA, according to the protocol described in Example 1.
(§2) ELISA plates (Corning, Inc. Cat#3369) were coated with 50 ng MCP-1 per well overnight at 4° C. Plates were washed then blocked with PBS/5% milk for 1.5 hrs at 25° C. Another wash was followed by incubation with the 11K2 mAbs (or 3G9 isotype control) at the concentrations indicated for 1 hr at 25° C. After washing, the plates were incubated with secondary antibody (anti-human IgG-HRP, Jackson Immunoresearch Cat#109-036-088) for 1 hr at 25° C. Plates were then washed and developed using the ABTS Peroxidase Substrate Kit (Vector Laboratories Cat#SK-4500). OD (405 nm) values were plotted as a function of 11K2 mAb concentration.

[2] = target: T2, murine MCP-1 (JE) (mouse, UniProt P10148 24-148); test: ELISA on plate-coated murine MCP-1, anti-human IgG-HRP; y axis unlabelled, OD 405 nm per paragraph 382
T2 construct: also called mMCP-1 (JE); muMCP-1
Procedure: as §1, §2

[3] = target: T3, human MCP-2 (human, UniProt P80075 24-99); test: KinExA, in solution
T3 construct: also called hMCP-2; huMCP-2
T3 sequence (looked up): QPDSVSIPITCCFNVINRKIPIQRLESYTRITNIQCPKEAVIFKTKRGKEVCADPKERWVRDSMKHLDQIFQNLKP
Procedure: (§3) Polymethylmethacrylate beads activated with NHS were coated with 10 μg recombinant human MCP-1 in 1 ml buffer. The beads were packed into a column in the KinExA instrument for each sample. This packed bead column is able to capture free MCP mAb or Fab flowed through the column. The amount of free mAb or Fab in solution was determined using a secondary goat anti-mouse heavy and light chain IgG-Cy5 conjugate.
(§4) A fixed amount of 11K2 mAb, 1A1 mAb, 11K2 Fab, or 1A1 Fab was incubated with various amounts of human MCP-1, MCP-2 or MCP-3 for three hours. The amount of uncomplexed free antibody remaining in solution was determined by flowing these mixtures over the MCP-1-loaded bead column and labeling with the Cy5 secondary antibody. The fluorescent signal was plotted against the MCP concentration and the affinity was determined using a quadratic curve fit

[4] = target: T1, human MCP-1; test: KinExA, in solution
Procedure: as §3, §4

[5] = target: human Gcp-2 (human, UniProt P80162 38-114, limits assumed); test: ELISA, supernatant
Procedure: (§5) MaxiSorp 384 well plates were coated with 15-20 μl antigen in PBS. Recombinant purified human antigens included: MCP-1, MCP-2, MCP-3, MCP-4, IL-8, eotaxin, fractalkine, Gcp-2, DC-CK (Gcp-2 and DC-CK are also chemokines). Plates were incubated with antigen for 2 hours at 37° C. or overnight at 4° C. Non-specific sites were blocked with 80 μl/well of 1% BSA/PBS for 1 hour at room temperature. Plates were washed and 15 μl of hybridoma supernatant was added to each well and incubated for 1 hour at room temperature. Plates were washed and wells were incubated with 20 μl/well of a 1:25 000 dilution of goat anti-mouse IgG peroxidase conjugate (Jackson Catalog Number 515-036-003). Plates were incubated for 1 hour at room temperature, washed, and 20 μl/well of substrate (TMB, tetramethylbenzidine, Jackson, Catalog Number 515-036-062) was added. Reaction was allowed to proceed and stopped by addition of 20 μl/well of 2M H₂SO₄. Reactive clones were picked for further analysis. Isotyping of hybridoma supernatants was performed by antigen-dependent ELISA. Briefly, wells were coated with 50 μl of human MCP-1 (5 μg/ml) for 1 hour at 37° C. Wells were washed 4 times and blocked with PBS/1% BSA. Isotyping of hybridoma supernatants was then performed using a mouse immunoglobulin screening/isotyping kit (Zymed Laboratories, San Francisco, —CA) as recommended by the manufacturer.

[6] = target: T4, human DC-CK (human, UniProt P55774 21-89); test: ELISA, supernatant
T4 sequence (looked up): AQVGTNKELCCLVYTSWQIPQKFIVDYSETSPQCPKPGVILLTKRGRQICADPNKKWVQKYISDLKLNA
Procedure: as §5

[7] = target: T5, human fractalkine (human, UniProt P78423 25-100, limits assumed); test: ELISA, supernatant
T5 sequence (looked up): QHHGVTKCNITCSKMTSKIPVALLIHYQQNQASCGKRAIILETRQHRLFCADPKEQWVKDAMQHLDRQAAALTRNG
Procedure: as §5

[8] = target: T6, human eotaxin (human, UniProt P51671 24-97); test: ELISA, purified mAb
T6 construct: also called hEotaxin
Procedure: (§6) ELISA specificity assays were performed using purified monoclonal antibodies to confirm the binding specificities of the supernatant MCP-specific monoclonal antibodies described above. Antibodies were purified by Protein A affinity column chromatography, according to standard methods known in the art.
(§7) ELISA was performed as previously described in Example 1. Briefly, MaxiSorp 384 well plates were coated with 15-20 μl antigen in PBS. Recombinant purified human antigens included: MCP-1, MCP-2, MCP-3, MCP-4, IL-8, eotaxin, murine MCP-1 (JE), murine MCP-3, murine MCP-5, and rat MCP-1. All antigens, including MCP-3, were immobilized. Plates were washed and purified monoclonal antibody (10 μg/ml) was added to each well and incubated for 1 hour at room temperature. Plates were washed and wells were incubated with 20 μl/well of a 1:25,000 dilution of goat anti-mouse IgG peroxidase conjugate (Jackson Catalog Number 515-036-003). Plates were incubated for 1 hour at room temperature, washed, and 20 μl/well of substrate (, tetramethylbenzidine, Jackson, Catalog Number 515-036-062) was added. Reaction was allowed to proceed and stopped by addition of 20 μl/well of 2M H₂SO₄. Antibodies 1A1 bound specifically to hMCP-1, hMCP-2, hMCP-3, and mMCP-1. Antibodies 11K2, 4N4, 5A13, 6D21, 615, and 7H1 bound specifically to hMCP-1, hMCP-2, hMCP-3, mMCP-1, mMCP-3, and mMCP-5.

[9] = target: T7, human IL-8 (human, UniProt P10145 28-99, limits assumed); test: ELISA, purified mAb
T7 construct: also called hIL8
Procedure: as §6, §7

[10] = target: T8, human MCP-4 (human, UniProt Q99616 24-98, limits assumed); test: ELISA, purified mAb
T8 construct: also called hMCP-4
Procedure: as §6, §7

[11] = target: T1, human MCP-1; test: KinExA, in solution, Fab; Fab, not intact mAb
Procedure: (§8) 1 ml of MCP-1 at a concentration of 10 μg/ml in NaHCO₃ was added to an amount of beads equivalent to 1 ml of the original slurry. The beads were rocked overnight at 4° C. Beads were spun down and washed once with 1M Tris, pH 8.0, then resuspended in 1M Tris pH 8.0 with 1% BSA, 0.02% azide. The beads were rocked at room temperature for one hour then stored at 4° C. in this buffer for the duration of the experiments.
The KinExA 3000 measures protein-protein interaction in solution, and is ideally suited for measuring affinities of antibodies to antigens. In the typical experiment, antigen (MCP) is immobilized on a bead, antibody is flowed over a column of these beads at a given concentration, and the antibody that binds to the beads is detected using a fluorescent secondary. Antibody at a fixed concentration is then incubated with different concentrations of antigen in solution and the amount of free antibody is measured by flowing the mixture over the bead column quickly enough that no re-equilibration occurs between solution and solid phase. The amount of antibody remaining free is plotted against the concentration of antigen added and the data are fit to a quadratic equation to determine the affinity of the interaction in solution. […]

[12] = target: T3, human MCP-2; test: KinExA, in solution, Fab
Procedure: as §8
(§9) The KinExA 3000 measures protein-protein interaction in solution, and is ideally suited for measuring affinities of antibodies to antigens. In the typical experiment, antigen (MCP) is immobilized on a bead, antibody is flowed over a column of these beads at a given concentration, and the antibody that binds to the beads is detected using a fluorescent secondary. Antibody at a fixed concentration is then incubated with different concentrations of antigen in solution and the amount of free antibody is measured by flowing the mixture over the bead column quickly enough that no re-equilibration occurs between solution and solid phase. The amount of antibody remaining free is plotted against the concentration of antigen added and the data are fit to a quadratic equation to determine the affinity of the interaction in solution.
(§10) In these experiments, the only difference to the typical experiment described above is that instead of using intact antibody, a Fab fragment of 11K2 was used. Earlier KimExA experiments using the intact murine 11K2 mAb binding to MCP-1 and MCP-2 gave biphasic curves that the software could not interpret. This may be due to these proteins acting as dimers, so to eliminate the dimer/dimer interaction we generated Fab fragments. The binding of the 11K2 Fab fragments to MCP-1 and MCP-2 produced curves that the KinExA software could fit.

[13] = target: T3, human MCP-2; test: ELISA on immobilised MCP-2, absorbance 450 nm
[14] = target: T9, human MCP-3 (human, UniProt P80098 24-99); test: ELISA
T9 construct: also called hMCP-3

[15] = target: T3, human MCP-2; test: KinExA, in solution; intact bivalent mAb, not Fab
Procedure: as §3, §4

[16] = target: T3, human MCP-2; test: KinExA, in solution; Fab, not intact mAb
[17] = target: T1, human MCP-1; test: KinExA, in solution, Fab
Procedure: as §8, §9, §10

EC50 (read off the curve) [1]: ~0.02 µg/mL
EC50 (read off the curve) [2]: ~0.02 µg/mL
B1: chimeric 11K2 antibody (antibody, human IgG1, kappa, V domains shown)
VH: EVQLQQSGAELVKAGASVKLSCPASGLNIKDTYMHWVKQRPEQGLEWIGRIDPANGNTKFDPKFQGKATITADTSSNTAYLQLSSLTSEDTAVYYCARGVFGFFDYWGQGTTLTVSS
VL: DIQMTQSSSSFSVSLGDRVTITCKATEDIYNRLAWYQQKPGSAPRLLISGATSLETGVPSRFSGSGSGKDYTLSITSLQTEDVATYYCQQFWSAPYTFGGGTKLEIKR
notes: murine 11K2 variable domains with human IgG1 and kappa constant regions; also called Chimera; ch11K2

Kd [3]: 0.018 nM
Kd [4]: < 0.0004 nM
binding result [5]: no binding
binding result [6]: no binding
binding result [7]: no binding
binding result [8]: no binding (tested: 10 µg/ml)
binding result [9]: no binding (tested: 10 µg/ml)
binding result [10]: no binding (tested: 10 µg/ml)
B2: mouse monoclonal antibody 11K2 (antibody, V domains shown)
VH: B1 VH
VL: DIQMTQSSSSFSVSLGDRVTITCKATEDIYNRLAWYQQKPGSAPRLLISGATSLETGVPSRFSGSGSGKDYTLSITSLQTEDVATYYCQQFWSAPYTFGGGTKLEIK
notes: mouse IgG1; also called 11K2.1; mu11K2

Kd [11]: 0.011 nM
Kd [3]: 0.43 nM
Kd [4]: 0.011 nM
Kd [12]: 0.43 nM
B3: Fab fragment of murine 11K2 (Fab, V domains shown)
VH: B1 VH
VL: B2 VL
notes: also called 11K2 Fab; mu11K2 Fab

EC50 (read off the curve) [1]: ~0.02 µg/mL
binding result [2]: binds
EC50 (read off the curve) [13]: ~0.3 µg/mL
binding result [14]: no binding
B4: humanized 11K2 H1-L1 (antibody, human IgG1, kappa, V domains shown)
VH: QVQLVQSGAEVKKPGSSVKVSCKASGLNIKDTYMHWVRQAPGQGLEWIGRIDPANGNTKFDPKFQGRATITADTSTSTAYMELSSLRSEDTAVYYCARGVFGFFDYWGQGTTVTVSS
VL: DIQMTQSPSSLSASVGDRVTITCKATEDIYNRLAWYQQKPGKAPKLLISGATSLETGVPSRFSGSGSGKDYTLTISSLQPEDFATYYCQQFWSAPYTFGGGTKVEIKR
notes: human IgG1 kappa; also called hu11K2

EC50 (read off the curve) [1]: ~0.02 µg/mL
binding result [2]: binds
EC50 (read off the curve) [13]: ~0.2 µg/mL
binding result [14]: no binding
B5: humanized 11K2 H2-L1 (antibody, human IgG1, kappa, V domains shown)
VH: B4 VH with N28T, K30S, I48M, A68V
VL: B4 VL
notes: human IgG1 kappa

Kd [4]: < 0.0007 nM
Kd [15]: 0.0012 nM
binding result [5]: no binding
binding result [6]: no binding
binding result [7]: no binding
binding result [8]: no binding (tested: 10 µg/ml)
binding result [9]: no binding (tested: 10 µg/ml)
binding result [10]: no binding (tested: 10 µg/ml)
B6: mouse monoclonal antibody 1A1 (antibody, V domains shown)
VH: EVQLQQSGAELVRSGASVKLSCTASGFNIKDNYMHWVKQRPEQGLEWIGWIDPENGDTEYAPKFQGKATMTADTSSNTAYLQLSSLTSEDTAVYYCNTWAYYGTSYGGFAYWGQGTTVTVSS
VL: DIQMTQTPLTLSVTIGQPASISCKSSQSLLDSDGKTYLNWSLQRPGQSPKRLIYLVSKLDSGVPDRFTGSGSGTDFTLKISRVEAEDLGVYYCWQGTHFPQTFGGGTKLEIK
notes: mouse IgG1; also called 1A1.1; mu1A1

Kd [4]: 0.013 nM
Kd [16]: 0.32 nM
Kd [12]: 0.32 nM
Kd [17]: 0.0129 nM
B7: Fab fragment of murine 1A1 (Fab, V domains shown)
VH: B6 VH
VL: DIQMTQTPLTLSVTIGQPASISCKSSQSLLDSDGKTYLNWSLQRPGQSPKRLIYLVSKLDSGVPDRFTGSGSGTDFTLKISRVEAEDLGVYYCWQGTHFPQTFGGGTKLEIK
notes: also called 1A1 Fab
